In patent US20040202655A1:
Several values for one entry are separate records, joined by “and”; a condition that tells them apart may be missing. Identical values can stand only once.

How the values were obtained:
[1] = biological target: human IGF-I receptor on cells (NIH-3T3 fibroblasts expressing the human IGF-IR; DU145 cells) (human) (UniProt P08069); assay: cell-based or functional assay
[2] = biological target: human IGF-I receptor on cells (NIH-3T3 fibroblasts expressing the human IGF-IR; DU145 cells) (human) (UniProt P08069); assay: competition with 125I-IGF-I, NIH-3T3 cells expressing human IGF-1R, 37 C
[3] = biological target: human IGF-I receptor on cells (NIH-3T3 fibroblasts expressing the human IGF-IR; DU145 cells) (human) (UniProt P08069); assay: competition with 125I-IGF-II, NIH-3T3 cells expressing human IGF-1R, 37 C
[4] = biological target: human IGF-I receptor on cells (NIH-3T3 fibroblasts expressing the human IGF-IR; DU145 cells) (human) (UniProt P08069); assay: competition with 125I-IGF-I, NIH-3T3 cells expressing human IGF-1R, 4 C
[5] = biological target: human IGF-I receptor on cells (NIH-3T3 fibroblasts expressing the human IGF-IR; DU145 cells) (human) (UniProt P08069); assay: competition with 125I-IGF-II, NIH-3T3 cells expressing human IGF-1R, 4 C

IC50 (nM), IGF-1 dependent proliferation of NIH-3T3/hIGF-1R cells (BrdU ELISA) [1] [nM]	IC50 [2]	IC50 [3]	IC50 [4]	IC50 [5]	Substance
> 70	> 50 nM	> 50 nM			MOPC-21 (#M-7894, Sigma), IgG1 isotype control (antibody)
> 70		> 50 nM			UPC-10 (#F-0528), IgG2a isotype control (antibody)
	1.7 nM and 1.9 nM	4 nM and 6.5 nM	3 nM and 1.5 nM and 4 nM	1 nM and 0.6 nM	mouse anti-IGF-1R monoclonal antibody 24-57 (#MS-643-PABX, NeoMarkers)
> 70	1.6 nM and 1.9 nM	> 50 nM	3.5 nM		mouse anti-IGF-1R monoclonal antibody alpha IR3 (#GR11SP2, Oncogene Research Products)
